One test has as its target T1, ZNRF3 and ALK3^ECD (Homo sapiens, UniProt P36894+Q9ULT6).
T1 construct: purchased R&D systems 7994-RF
As to the kind of experiment: In vitro binding assay for ZNRF3 and ALK3^ECD. Conditions: plates coated with ZNRF3 Fc, ALK3^ECD-AP preincubated with the protein. Here is the method:
High binding 96-well plates (Greiner M5811) were coated with 2 μg ml^−1 of recombinant human RSPO1 (Peprotech 120-38), RSPO2 (Peprotech 120-43), RSPO3 (Peprotech 120-44) or FGF8b (Peprotech 100-25) recombinant protein reconstituted in bicarbonate coating buffer (50 mM NaHCO3, pH 9.6) overnight at 4° C. Coated wells were washed three times with TBST (TBS, 0.1% Tween-20) and blocked with 5% BSA in TBST for 1 hour at room temperature. 1.5 U ml^−1 of ALK3^ECD-AP or control conditioned medium was incubated overnight at 4° C. Wells were washed six times with TBST and bound AP activity was measured by the chemiluminescent SEAP Reporter Gene Assay kit (Abcam ab 133077). For ZNRF3-ALK3 binding assay, plates were coated with recombinant human ZNRF3 Fc Chimera protein (R&D systems 7994-RF). ALK3^ECD-AP was preincubated with RSPO2-Flag, RSPO2^ΔTSP-Flag conditioned medium or recombinant RSPO protein prior to treatment. Control conditioned medium and vesicles were used as control. […] Statistical analyses show unpaired t-tests.

The test system of a further test is ID1. As to the kind of experiment: qRT-PCR analysis of ID1 in HEPG2 cells. In kind it is cell-based, human. The settings on record: BMP4. As for the experimental part:
Cultured cells were lysed in Macherey-Nagel RAI buffer containing 1% β-mercaptoethanol and total RNAs were isolated using NucleoSpin RNA isolation kit (Macherey-Nagel 740955). Reverse transcription and PCR amplification were performed. Primers used in this study are listed in Supplementary Table 1. Graphs show relative gene expressions to GAPDH. […] Statistical analyses were performed using PRISM7 software with unpaired t-test or one-way ANOVA test.
On the technique in general: In qPCR the cycle at which signal appears reflects the starting amount.

T1 sequence (Q9ULT6 56-219 limits assumed): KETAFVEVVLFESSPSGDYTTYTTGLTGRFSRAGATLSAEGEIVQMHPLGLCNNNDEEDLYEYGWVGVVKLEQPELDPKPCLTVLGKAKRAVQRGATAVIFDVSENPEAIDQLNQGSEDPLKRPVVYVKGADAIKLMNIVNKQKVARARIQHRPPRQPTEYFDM
T1 sequence (P36894 24-152 limits assumed): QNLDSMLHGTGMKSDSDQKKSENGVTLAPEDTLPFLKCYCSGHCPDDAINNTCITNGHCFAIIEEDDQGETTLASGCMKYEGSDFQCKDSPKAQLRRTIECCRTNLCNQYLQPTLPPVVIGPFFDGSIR

B1: RSPO2: human R-spondin 2 protein (SEQ ID NO:1); conditioned medium or recombinant (Peprotech 120-43) (protein, listed as Homo sapiens)
chain: MQFRLFSFALIILNCMDYSHCQGNRWRRSKRASYVSNPICKGCLSCSKDNGCSRCQQKLFFFLRREGMRQYGECLHSCPSGYYGHRAPDMNRCARCRIENCDSCFSKDFCTKCKVGFYLHRGRCFDECPDGFAPLEETMECVEGCEVGHWSEWGTCSRNNRTCGFKWGLETRTRQIVKKPVKDTILCPTIAESRRCKMTMRHCPGGKRTPKAKEKRNKKKKRKLIERAQEQHSVFLATDRANQ
In the case of B1, the “ZNRF3 interaction with ALK3 in the presence of the protein” value with ZNRF3 and ALK3^ECD is “interacted with ALK3”. For the same molecule, the “expression of ID1” value in the test with ID1 is listed as “decreased”.

For the origin of these results see US20250346890A1, “LEUKEMIA TREATMENT” (Deutsches Krebsforschungszentrum, priority 2019, published 2025).
